{"source": "the nanobody polyreactivity screen of Harvey et al. (2022)", "data": [{"experiment": "yeast display, Sf9 membrane polyspecificity reagent, FACS + sequencing; frameworks hold sequencing errors", "procedure,_shortened": "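Using colony PCR, genes from sorted yeast display clones were amplified, then sequenced on MiSeq at 2 × 250 and filtered by CDR length. The clones had been stained with 10% biotinylated, detergent-solubilized Sf9 membrane reagent for 1 hour at 4 °C and sorted by FACS into low and high (top ~1%) gates on anti-HA and streptavidin fluorescence. Polyreactivity labels come from the gate of origin.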", "values": [{"sequence": "QVQLVESGGGLVQAGGSLRLSCAASGIIFYRYTMGWYRQAPGKERELVAAITSGGDTNYADSVKGRFTISRDNAKNTVYLQMNSLKPEDTAVYYCNADWWWYLYLYDYWGQGTQVTVSS", "polyreactivity (PSR sort gate)": "high polyreactivity"}, {"sequence": "QVQLVESGGGLVQAGGSLRLSCAASGRTFHPYAMGWYRQAPGKERELVAAITISTNYADSVKGRFTISRDNAKNTVSLQMNSVKPEDTAVYYCNADFVRPSWARGRNNGLYYWGQGTQVTVSS", "polyreactivity (PSR sort gate)": "low polyreactivity"}, {"sequence": "QVQLVESGGGLVQAGGSLRLSCAASGSTFSGNARGWDRQAPGKERELVAAISRRGGSTNYADSVKGRFTISRDNAKYTVYLKMNSLKPEDTAVYYCNKGDYRSAYRHIEYGYWGQGTQVTVSS", "polyreactivity (PSR sort gate)": "low polyreactivity"}, {"sequence": "QVQLVESVGGLVQAGGSLRLSCAASGRTFRAYSMGSYRQAPGKETELVAAIRSGTSTNYADSVKGRFTISRDNAKNTVYLQMNSLKPEDTAVYYCAARWWYYIGGRDYWGHGTQVTVSS", "polyreactivity (PSR sort gate)": "high polyreactivity"}, {"sequence": "QVQLVETGGGLVQAGGSLRLSCAASGSTFGYNGMGWYRQAPGKERELVAAISGGARTYADSVKGRFTISRDNAKNTVYLQMNSLIPEDTAVYYCAADSPVSVTADDGYWGLGTQVTVSS", "polyreactivity (PSR sort gate)": "low polyreactivity"}, {"sequence": "QVQLVETGGGLVQAGGSLRLSCAASGFTFPYNAMGWYRQAPGKERELVAAISSTGGITYYADSVKGRFTISRDNAKNTVYLQMNSLKPEDTAVYYCGWYDYWGQGTQVTVSS", "polyreactivity (PSR sort gate)": "low polyreactivity"}, {"sequence": "QVQLVESGGGLVQAGGSLRLSCAPSGSIFVYYGMGWYRQAPRKERELVAAISSGGSTHYADSVKGRFTISRDNAKITVYLQMNSLKPEDTAVYYCAADRFFWLRSYPRYYYWGQGTQVTVSS", "polyreactivity (PSR sort gate)": "low polyreactivity"}, {"sequence": "QLQLVESGAGLVQAGGSLRLSCAASGSTFTVYGMAWYRQAPGKERELVAAITYSGGSTYYADSVKGRFTISRDNAKHTVYLTMNSLKPEDTGVYYCAAAGSQYYRRWYDYWGQGTQVTVSS", "polyreactivity (PSR sort gate)": "low polyreactivity"}, {"sequence": "QVQLVESGGGLVQAGGSLRLSCAASGFIFRYYARGWYRQAPGKERELVAAITSTGRTYYADSVKGRFTISRDNAKNTVYLQMNSLKPEDTAVYYCAKAWLRWGEDYWGQGTQVTVSS", "polyreactivity (PSR sort gate)": "low polyreactivity"}, {"sequence": "QVQLVESGGGLVQAGGSLRLSCAASGRNFQWYSMGWSRQAPGKEREFVAAIRYSGGSTYYADSVKGRFTISRDNAKNTVYLQMNSMKPEDTSVYYCNARTGFLARNKRFGYWGQGTQVSVSS", "polyreactivity (PSR sort gate)": "high polyreactivity"}, {"sequence": "QVQLVESGGGLVQAGVSLRLSCAASGNTFGLYAMGWYRQAPGKEREFVADITTDGGTTYYADSVKGRFTISRDNAKNTVYLQMNSLKPEDTAVYYCAKLGTFGQHQYDYWGQGTQVTVSS", "polyreactivity (PSR sort gate)": "low polyreactivity"}, {"sequence": "QVQLVESGGGLVQAGGSLRLICAASGFNFVTNAMGWYRQAPGKERELVAAISRRGGSTYYADSVKGRFTISRDIAKNTVYLQMNSLKPEDTAVLYCAAVTLSAESGYYWGHGTQVTVSS", "polyreactivity (PSR sort gate)": "high polyreactivity"}, {"sequence": "QVQLVESGGGLVQAGGSLRVSCAASGSTFRKYAMGWYRQAPGKEREFVAAITSSGGSTYYADSVKGRFTISRDNAKNTLYLQMNSLKPEDTAVYYCAARGDSVSTAYNYWGQGTQVTVSS", "polyreactivity (PSR sort gate)": "high polyreactivity"}, {"sequence": "QVQLVESGGGLVQAGGSLRLSCAASGFIIFQYAMGLYRQAPGKERELVAAISGSGVTTYYADSVKGRFTISRDNAKNNVYLQMNSLKPEDTAVYYCNAALSWKYDWGQGTQVTVSS", "polyreactivity (PSR sort gate)": "low polyreactivity"}, {"sequence": "QVQLVESGGGLVQAGGSLRLSCAASGPMFTSNAMGWYRQAPGKERELVAAISRRGTRTYYADSVKGRFTISRDNAKNTVYLQMNSLKPEDTAVYYCAATTGEQEDYWGQGTQVTVSS", "polyreactivity (PSR sort gate)": "high polyreactivity"}, {"sequence": "QVQLVESGGGLVQAGGRLRLSCAASGSTFWLNAMGWSRQATGKERELFADSSRSGGSTYYADSVKGRFTISRDNAKNTVYLQMNSLKPEDTAVYYCAADSWPDQFTVYPGGDYWGQGTQVTVSS", "polyreactivity (PSR sort gate)": "low polyreactivity"}, {"sequence": "QVQLVESVGGLVQAGVSLRLSGAASGNTFVPYAMGWSRQAPGKESELVAAISLRGGSTYYADSVKGRFTISRDNAKNTVYLQMNSLKPEDTAVYYCAARTFYRPGLAGGYWGQGTQVTVAS", "polyreactivity (PSR sort gate)": "high polyreactivity"}, {"sequence": "QVQLVESGGGLVQAGGILRLSCAASGLTFAKNAMGWYRQAPGKERELVAAITTGGSTYYADSVKGRFTISRDNAKNTVYLQMNSLKPEDTAVYYCAAQILVRHIPYYFWGQGSQVTVSS", "polyreactivity (PSR sort gate)": "high polyreactivity"}, {"sequence": "QVQLVESGGGLVQAGGSLRLSCAASGRTFDPNAMGWYRPAPGKERELVAAISSSAGSTYYADSVKGRFTISRDNAKNTVYLQMNSLNPEDPALYFCAAGSGTFVTRYRYGYWGQGTQVTVSS", "polyreactivity (PSR sort gate)": "high polyreactivity"}, {"sequence": "QVQLVESGGGLVQAGGSLRLSCAASGRTFFGYAMGWYRQAPGKERELVAAITSSGGRTYYADSVKGRFTISRDNAKNTVYLQMNSLKPEDTAVYYCNTVLSFRSVNIYRGRGDYWGQGSQVTVSS", "polyreactivity (PSR sort gate)": "high polyreactivity"}, {"sequence": "QVQLVESGGGLVQAGGSLRLSCAASGSTFTIYAYGWYRQAPGKERELVAAITRGGGRTYYADSVKGRFTISRDNAKNTVFLQMNSLKPEVTAVYYCAAYYAHEFDYRGQGTQVTVSS", "polyreactivity (PSR sort gate)": "high polyreactivity"}]}]}
